Reference: IntAct's records for PubMed 25910212

B1: PiggyBac transposable element-derived protein 1 (Homo sapiens), Q96JS3 (parent)
chain: MYEALPGPAPENEDGLVKVKEEDPTWEQVCNSQEGSSHTQEICRLRFRHFCYQEAHGPQEALAQLRELCHQWLRPEMHTKEQIMELLVLEQFLTILPKELQPCVKTYPLESGEEAVTVLENLETGSGDTGQQASVYIQGQDMHPMVAEYQGVSLECQSLQLLPGITTLKCEPPQRPQGNPQEVSGPVPHGSAHLQEKNPRDKAVVPVFNPVRSQTLVKTEEETAQAVAAEKWSHLSLTRRNLCGNSAQETVMSLSPMTEEIVTKDRLFKAKQETSEEMEQSGEASGKPNRECAPQIPCSTPIATERTVAHLNTLKDRHPGDLWARMHISSLEYAAGDITRKGRKKDKARVSELLQGLSFSGDSDVEKDNEPEIQPAQKKLKVSCFPEKSWTKRDIKPNFPSWSALDSGLLNLKSEKLNPVELFELFFDDETFNLIVNETNNYASQKNVSLEVTVQEMRCVFGVLLLSGFMRHPRREMYWEVSDTDQNLVRDAIRRDRFELIFSNLHFADNGHLDQKDKFTKLRPLIKQMNKNFLLYAPLEEYYCFDKSMCECFDSDQFLNGKPIRIGYKIWCGTTTQGYLVWFEPYQEESTMKVDEDPDLGLGGNLVMNFADVLLERGQYPYHLCFDSFFTSVKLLSALKKKGVRATGTIRENRTEKCPLMNVEHMKKMKRGYFDFRIEENNEIILCRWYGDGIISLCSNAVGIEPVNEVSCCDADNEEIPQISQPSIVKVYDECKEGVAKMDQIISKYRVRIRSKKWYSILVSYMIDVAMNNAWQLHRACNPGASLDPLDFRRFVAHFYLEHNAHLSD
partner: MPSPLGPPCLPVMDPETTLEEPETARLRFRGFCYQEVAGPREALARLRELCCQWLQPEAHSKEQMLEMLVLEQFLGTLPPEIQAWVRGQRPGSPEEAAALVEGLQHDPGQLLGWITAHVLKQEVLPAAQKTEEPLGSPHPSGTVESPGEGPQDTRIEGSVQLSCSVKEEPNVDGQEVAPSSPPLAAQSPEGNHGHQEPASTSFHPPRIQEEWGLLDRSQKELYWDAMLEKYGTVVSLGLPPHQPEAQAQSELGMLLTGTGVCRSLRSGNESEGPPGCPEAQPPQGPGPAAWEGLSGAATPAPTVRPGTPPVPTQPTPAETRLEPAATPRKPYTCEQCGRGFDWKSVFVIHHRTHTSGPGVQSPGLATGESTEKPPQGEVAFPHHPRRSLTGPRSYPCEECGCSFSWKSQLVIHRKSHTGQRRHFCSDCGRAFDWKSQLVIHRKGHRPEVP
B2: EF-hand domain-containing protein 1 (Homo sapiens), Q5JVL4 (parent)
chain: MVSNPVHGLPFLPGTSFKDSTKTAFHRSQTLSYRNGYAIVRRPTVGIGGDRLQFNQLSQAELDELASKAPVLTYGQPKQAPPADFIPAHVAFDKKVLKFDAYFQEDVPMSTEEQYRIRQVNIYYYLEDDSMSVIEPVVENSGILQGKLIKRQRLAKNDRGDHYHWKDLNRGINITIYGKTFRVVDCDQFTQVFLESQGIELNPPEKMALDPYTELRKQPLRKYVTPSDFDQLKQFLTFDKQVLRFYAIWDDTDSMYGECRTYIIHYYLMDDTVEIREVHERNDGRDPFPLLMNRQRVPKVLVENAKNFPQCVLEISDQEVLEWYTAKDFIVGKSLTILGRTFFIYDCDPFTRRYYKEKFGITDLPRIDVSKREPPPVKQELPPYNGFGLVEDSAQNCFALIPKAPKKDVIKMLVNDNKVLRYLAVLESPIPEDKDRRFVFSYFLATDMISIFEPPVRNSGIIGGKYLGRTKVVKPYSTVDNPVYYGPSDFFIGAVIEVFGHRFIILDTDEYVLKYMESNAAQYSPEALASIQNHVRKREAPAPEAESKQTEKDPGVQELEALIDTIQKQLKDHSCKDNIREAFQIYDKEASGYVDRDMFFKICESLNVPVDDSLVKELIRMCSHGEGKINYYNFVRAFSN
partner: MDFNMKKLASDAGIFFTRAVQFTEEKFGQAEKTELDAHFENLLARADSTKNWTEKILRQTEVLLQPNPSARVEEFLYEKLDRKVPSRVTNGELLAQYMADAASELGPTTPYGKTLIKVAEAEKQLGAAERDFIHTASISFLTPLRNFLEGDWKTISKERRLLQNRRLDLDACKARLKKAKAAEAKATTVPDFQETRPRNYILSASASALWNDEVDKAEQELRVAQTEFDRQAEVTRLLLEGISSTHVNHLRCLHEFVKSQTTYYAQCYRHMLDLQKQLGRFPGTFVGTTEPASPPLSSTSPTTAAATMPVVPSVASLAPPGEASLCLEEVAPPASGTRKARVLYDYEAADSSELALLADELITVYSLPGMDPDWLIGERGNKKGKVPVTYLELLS
B3: Krev interaction trapped protein 1 (Homo sapiens), O00522 (parent)
chain: MGNPENIEDAYVAVIRPKNTASLNSREYRAKSYEILLHEVPIEGQKKKRKKVLLETKLQGNSEITQGILDYVVETTKPISPANQGIRGKRVVLMKKFPLDGEKMGREASLFIVPSVVKDNTKYTYTPGCPIFYCLQDIMRVCSESSTHFATLTARMLIALDKWLDERHAQSHFIPALFRPSPLERIKTNVINPAYATESGQTENSLHMGYSALEIKSKMLALEKADTCIYNPLFGSDLQYTNRVDKVVINPYFGLGAPDYSKIQIPKQEKWQRSMSSVTEDKERQWVDDFPLHRSACEGDSELLSRLLSERFSVNQLDSDHWAPIHYACWYGKVEATRILLEKGKCNPNLLNGQLSSPLHFAAGGGHAEIVQILLNHPETDRHITDQQGRSPLNICEENKQNNWEEAAKLLKEAINKPYEKVRIYRMDGSYRSVELKHGNNTTVQQIMEGMRLSQETQQYFTIWICSENLSLQLKPYHKPLQHVRDWPEILAELTNLDPQRETPQLFLRRDVRLPLEVEKQIEDPLAILILFDEARYNLLKGFYTAPDAKLITLASLLLQIVYGNYESKKHKQGFLNEENLKSIVPVTKLKSKAPHWTNRILHEYKNLSTSEGVSKEMHHLQRMFLQNCWEIPTYGAAFFTGQIFTKASPSNHKVIPVYVGVNIKGLHLLNMETKALLISLKYGCFMWQLGDTDTCFQIHSMENKMSFIVHTKQAGLVVKLLMKLNGQLMPTERNS
partner: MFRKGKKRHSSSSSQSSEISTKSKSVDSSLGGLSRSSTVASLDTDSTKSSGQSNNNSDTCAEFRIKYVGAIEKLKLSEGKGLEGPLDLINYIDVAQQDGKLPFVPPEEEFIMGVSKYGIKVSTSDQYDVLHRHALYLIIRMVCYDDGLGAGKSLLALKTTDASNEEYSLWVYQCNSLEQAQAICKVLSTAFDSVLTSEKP
B4: Carbonic anhydrase-related protein (Homo sapiens), P35219 (parent)
chain: MADLSFIEDTVAFPEKEEDEEEEEEGVEWGYEEGVEWGLVFPDANGEYQSPINLNSREARYDPSLLDVRLSPNYVVCRDCEVTNDGHTIQVILKSKSVLSGGPLPQGHEFELYEVRFHWGRENQRGSEHTVNFKAFPMELHLIHWNSTLFGSIDEAVGKPHGIAIIALFVQIGKEHVGLKAVTEILQDIQYKGKSKTIPCFNPNTLLPDPLLRDYWVYEGSLTIPPCSEGVTWILFRYPLTISQLQIEEFRRLRTHVKGAELVEGCDGILGDNFRPTQPLSDRVIRAAFQ
partner: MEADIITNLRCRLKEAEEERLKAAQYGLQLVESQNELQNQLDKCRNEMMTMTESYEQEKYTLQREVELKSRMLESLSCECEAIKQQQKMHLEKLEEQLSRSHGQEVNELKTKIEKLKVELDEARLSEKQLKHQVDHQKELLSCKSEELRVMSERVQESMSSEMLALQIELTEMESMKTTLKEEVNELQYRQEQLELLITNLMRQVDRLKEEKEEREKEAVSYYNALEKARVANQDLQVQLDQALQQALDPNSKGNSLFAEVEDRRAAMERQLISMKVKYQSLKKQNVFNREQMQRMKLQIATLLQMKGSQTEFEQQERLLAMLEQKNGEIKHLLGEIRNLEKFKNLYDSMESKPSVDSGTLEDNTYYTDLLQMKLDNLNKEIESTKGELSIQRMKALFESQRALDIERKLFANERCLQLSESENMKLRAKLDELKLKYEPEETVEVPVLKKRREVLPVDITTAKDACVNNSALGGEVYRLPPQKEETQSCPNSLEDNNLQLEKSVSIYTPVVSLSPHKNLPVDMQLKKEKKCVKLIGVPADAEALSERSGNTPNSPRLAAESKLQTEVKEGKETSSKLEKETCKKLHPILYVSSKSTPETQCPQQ
B5: Sulfotransferase 2B1 (Homo sapiens), O00204 (parent)
chain: MDGPAEPQIPGLWDTYEDDISEISQKLPGEYFRYKGVPFPVGLYSLESISLAENTQDVRDDDIFIITYPKSGTTWMIEIICLILKEGDPSWIRSVPIWERAPWCETIVGAFSLPDQYSPRLMSSHLPIQIFTKAFFSSKAKVIYMGRNPRDVVVSLYHYSKIAGQLKDPGTPDQFLRDFLKGEVQFGSWFDHIKGWLRMKGKDNFLFITYEELQQDLQGSVERICGFLGRPLGKEALGSVVAHSTFSAMKANTMSNYTLLPPSLLDHRRGAFLRKGVCGDWKNHFTVAQSEAFDRAYRKQMRGMPTFPWDEDPEEDGSPDPEPSPEPEPKPSLEPNTSLEREPRPNSSPSPSPGQASETPHPRPS
B6: Tyrosine aminotransferase (Homo sapiens), P17735 (parent)
chain: MDPYMIQMSSKGNLPSILDVHVNVGGRSSVPGKMKGRKARWSVRPSDMAKKTFNPIRAIVDNMKVKPNPNKTMISLSIGDPTVFGNLPTDPEVTQAMKDALDSGKYNGYAPSIGFLSSREEIASYYHCPEAPLEAKDVILTSGCSQAIDLCLAVLANPGQNILVPRPGFSLYKTLAESMGIEVKLYNLLPEKSWEIDLKQLEYLIDEKTACLIVNNPSNPCGSVFSKRHLQKILAVAARQCVPILADEIYGDMVFSDCKYEPLATLSTDVPILSCGGLAKRWLVPGWRLGWILIHDRRDIFGNEIRDGLVKLSQRILGPCTIVQGALKSILCRTPGEFYHNTLSFLKSNADLCYGALAAIPGLRPVRPSGAMYLMVGIEMEHFPEFENDVEFTERLVAEQSVHCLPATCFEYPNFIRVVITVPEVMMLEACSRIQEFCEQHYHCAEGSQEECDK

Variants of: B1
Details: with zn446_human ZNF446, Q9NWS9

Row | Variant | effect of a mutation on the interaction
1 | H806D | with no effect

Variants of: B2
Details: with shlb2_human SH3GLB2, Q9NR46

Row | Variant | effect of a mutation on the interaction
2 | P77T | disrupting interaction strength
3 | R159W | with no effect
4 | R221H | disrupting interaction strength
5 | A394S | disrupting interaction strength
6 | M448T | with no effect
7 | T508R | with no effect

Variants of: B3
Details: with itbp1_human ITGB1BP1, O14713

Row | Variant | effect of a mutation on the interaction
8 | D137G | with no effect

Variants of: B4
Details: with spdly_human SPDL1, Q96EA4

Row | Variant | effect of a mutation on the interaction
9 | S100P | disrupting interaction strength

Variants of: B5
Details: with st1b1_human SULT1B1, O43704
Chain of st1b1_human SULT1B1, O43704 (O43704 whole entry): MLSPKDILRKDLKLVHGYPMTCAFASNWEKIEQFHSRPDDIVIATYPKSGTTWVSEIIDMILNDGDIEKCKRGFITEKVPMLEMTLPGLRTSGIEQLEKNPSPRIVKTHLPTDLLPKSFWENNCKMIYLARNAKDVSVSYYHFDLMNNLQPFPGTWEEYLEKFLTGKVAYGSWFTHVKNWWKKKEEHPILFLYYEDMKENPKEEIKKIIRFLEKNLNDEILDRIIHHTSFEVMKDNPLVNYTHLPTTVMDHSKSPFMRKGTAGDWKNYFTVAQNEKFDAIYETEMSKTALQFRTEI

Row | Variant | effect of a mutation on the interaction
10 | D191N | with no effect
11 | R230H | with no effect

Variants of: B5
Details: with st1a1_human SULT1A1, P50225
Chain of st1a1_human SULT1A1, P50225 (P50225 whole entry, looked up): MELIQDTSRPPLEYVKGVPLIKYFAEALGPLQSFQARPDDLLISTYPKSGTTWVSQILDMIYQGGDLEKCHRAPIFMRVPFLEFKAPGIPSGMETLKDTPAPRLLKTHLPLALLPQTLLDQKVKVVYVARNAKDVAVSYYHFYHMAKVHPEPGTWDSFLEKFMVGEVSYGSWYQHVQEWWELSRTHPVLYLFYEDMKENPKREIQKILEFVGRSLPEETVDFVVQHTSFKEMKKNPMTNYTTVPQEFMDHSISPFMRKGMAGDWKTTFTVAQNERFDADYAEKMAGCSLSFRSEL

Row | Variant | effect of a mutation on the interaction
12 | D191N | with no effect
13 | R230H | with no effect

Variants of: B6
Details: with UBE3A

Row | Variant | effect of a mutation on the interaction
14 | R119W | with no effect
15 | P220S | disrupting interaction strength
16 | L273P | disrupting interaction strength
17 | R433W | disrupting interaction strength

Variants of: B6
Details: with glna_human GLUL

Row | Variant | effect of a mutation on the interaction
18 | R119W | with no effect
19 | P220S | with no effect
20 | L273P | disrupting interaction strength
21 | R433W | disrupting interaction strength
